Biological target: integrin alpha(IIb)beta(3) (UniProt P08514)
Assay: cell-based or functional assay

B1: trimucrin variant RR (protein)
chain: EAGEECDCGSPENPCCDAATCKLRPGAQCAEGLCCDQCRFKKKRTICRRAKGDRRDDRCTGQSADCPRNRLYG
Question: Which IC50: platelet aggregation does the source give for B1 here?
Answer: 52.5 nM

Question: What about the Ratio (RR/corresponding protein) of IC50 for platelet aggregation (ratio (RR/corresponding protein)) of the same binder?
Answer: 1

From patent EP4592322A1
